This assay concerns the target T1, PtiDC1Δ70 (AvrPtoB lacking the first 70 amino acids) (Pseudomonas syringae pv. tomato DC3000, UniProt Q8RSY1 71-553).
T1 construct: also called AvrPtoB prey PtiDC1Δ70; avrPtoB (PtiDC1Δ70)
T1 sequence: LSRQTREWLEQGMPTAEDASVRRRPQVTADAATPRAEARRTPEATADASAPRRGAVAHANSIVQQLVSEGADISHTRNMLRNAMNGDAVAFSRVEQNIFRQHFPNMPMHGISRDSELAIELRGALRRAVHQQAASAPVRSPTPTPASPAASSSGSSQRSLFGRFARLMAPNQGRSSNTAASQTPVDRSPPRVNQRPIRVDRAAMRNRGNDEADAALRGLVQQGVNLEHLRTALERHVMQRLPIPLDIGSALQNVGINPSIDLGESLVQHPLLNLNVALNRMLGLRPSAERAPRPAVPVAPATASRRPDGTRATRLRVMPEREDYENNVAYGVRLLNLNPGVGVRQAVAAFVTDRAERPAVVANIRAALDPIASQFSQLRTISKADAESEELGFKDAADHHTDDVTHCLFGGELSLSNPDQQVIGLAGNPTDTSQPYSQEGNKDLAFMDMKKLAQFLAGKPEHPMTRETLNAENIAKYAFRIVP
As to the kind of experiment: LexA yeast two-hybrid, AvrPtoB prey PtiDC1Δ70 against kinase bait.

B1: Pti1 kinase (enzyme)
chain: MSCFSCCDDDDMHRATDNGPFMAHNSAGNNGGQRATESAQRETQTVNIQPIAVPSIAVDELKDITDNFGSKALIGEGSYGRVYHGVLKSGRAAAIKKLDSSKQPDREFLAQVSMVSRLKDENVVELLGYCVDGGFRVLAYEYAPNGSLHDILHGRKGVKGAQPGPVLSWAQRVKIAVGAAKGLEYLHEKAQPHIIHRDIKSSNILLFDDDVAKIADFDLSNQAPDMAARLHSTRVLGTFGYHAPEYAMTGQLSSKSDVYSFGVVLLELLTGRKPVDHTLPRGQQSLVTWATPRLSEDKVKQCVDARLNTDYPPKAIAKMAAVAALCVQYEADFRPNMSIVVKALQPLLPRPVPS
notes: Bait fusion in pEG202
On to B1, for which the binding result is reported as “no binding”.
